Experimental data reported in US20250354169A1.
Values belong to the binder of their own block, whether it stands above or below them.

Target: human FAM19A5-Fc protein (human) (UniProt Q7Z5A7)
Assay: binding inhibition, flow cytometry: 0.1 ug FAM19A5-Fc pre-incubated with 200 uL scFv supernatant, added to U87MG cells, detected with anti-human IgG 488; control GFP AAV supernatant

Sequence of UniProt Q7Z5A7 (Q7Z5A7 44-132): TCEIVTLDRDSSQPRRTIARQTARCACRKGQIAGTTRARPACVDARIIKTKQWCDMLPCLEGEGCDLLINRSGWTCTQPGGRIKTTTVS

reduction of the MFI of the binding of human FAM19A5-Fc to U87MG cells: 68%
B1: anti-FAM19A5 ("2-13") scFv, secreted by cells transduced with scAAV9-CMV-2-13-ScFv (scFv, part only)
scFv: ALTQPSSVSANPGETVKITCSGGSYSYGWFQQKSPGSALVTVIYWDDERPSDIPSRFSGALSGSTNTLTITGVQADDEAVYFCGTEDISGTAGVFGAGTTLTVLSGGGGSSGGGGSAVTLDESGGGLQTPGGALSLVCKASGFTFSSHGMFWVRQTPGKGLEYVAEITNDGSGTNYGSAVKGRATISRDNGQSTVRLQLNNLRAEDTGTYFCARSTYECPGGFSCWGDTGQIDAWGHGTEVIVSS
modifications: C-terminal FLAG tag

reduction of the MFI of the binding of human FAM19A5-Fc to U87MG cells: 19%
B2: anti-FAM19A5 ("1-65") scFv, secreted by cells transduced with scAAV9-CMV-1-65-ScFv (scFv, part only)
scFv: ALTQPSSVSANPGETVKITCSGGGSSGYGYGWYQQKSPSSAPLTVIYWNDKRPSDIPSRFSGSKSGSTHTLTITGVQAEDEAVYFCGNDDYSSDSGYVGVFGAGTTLTVLSGGGGSSGGGGSAVTLDESGGGLQTPGGALSLVCKASGFTFSSYQMGWVRQAPGKGLEWVGVINKSGSDTSYGSAVKGRATISRDNGQSTVRLQLNNLRAEDTGTYFCAKGSASYITAATIDAWGHGTEVIVSS
modifications: C-terminal FLAG tag
